Measured values published in US20130203080A1 (UNIVERSITE MONTPELLIER 2, published 2013).

What was measured:
[1] = biological target: T1, PiT1 phosphate transporter on murine cells (CD4+ T cells; cerebellar cortex sections) (mouse, UniProt Q61609 1-681); assay: flow cytometry, RBD on murine CD4+ T cells polarised to Th0, Th1, Th2, Th17 or iTreg, day 4
T1 construct: whole, on cells
T1 sequence: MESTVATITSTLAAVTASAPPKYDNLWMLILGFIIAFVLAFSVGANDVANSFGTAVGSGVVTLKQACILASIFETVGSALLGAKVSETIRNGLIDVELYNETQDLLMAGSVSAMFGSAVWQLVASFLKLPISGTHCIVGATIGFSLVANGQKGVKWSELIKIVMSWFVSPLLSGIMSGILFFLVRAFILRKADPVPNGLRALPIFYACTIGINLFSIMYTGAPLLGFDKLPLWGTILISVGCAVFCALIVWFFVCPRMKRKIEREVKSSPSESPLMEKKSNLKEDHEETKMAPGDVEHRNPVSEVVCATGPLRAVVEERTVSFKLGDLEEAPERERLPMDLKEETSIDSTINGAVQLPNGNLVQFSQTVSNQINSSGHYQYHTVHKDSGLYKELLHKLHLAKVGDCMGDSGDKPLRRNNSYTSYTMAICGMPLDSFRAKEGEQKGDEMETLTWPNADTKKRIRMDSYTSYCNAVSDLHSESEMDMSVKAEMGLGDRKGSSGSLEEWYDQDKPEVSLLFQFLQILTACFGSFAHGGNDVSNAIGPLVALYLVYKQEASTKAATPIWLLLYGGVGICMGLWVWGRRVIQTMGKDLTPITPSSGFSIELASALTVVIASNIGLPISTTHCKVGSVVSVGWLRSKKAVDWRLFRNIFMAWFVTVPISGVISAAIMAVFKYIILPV

[2] = biological target: T2, PiT1 phosphate transporter on human cells (T cells, CD34 progenitor cells) (human, UniProt Q8WUM9 1-679); assay: flow cytometry, tagged RBD on unstimulated and TCR-stimulated human T cells
T2 construct: whole, on cells; also called GaLV Env receptor
T2 sequence: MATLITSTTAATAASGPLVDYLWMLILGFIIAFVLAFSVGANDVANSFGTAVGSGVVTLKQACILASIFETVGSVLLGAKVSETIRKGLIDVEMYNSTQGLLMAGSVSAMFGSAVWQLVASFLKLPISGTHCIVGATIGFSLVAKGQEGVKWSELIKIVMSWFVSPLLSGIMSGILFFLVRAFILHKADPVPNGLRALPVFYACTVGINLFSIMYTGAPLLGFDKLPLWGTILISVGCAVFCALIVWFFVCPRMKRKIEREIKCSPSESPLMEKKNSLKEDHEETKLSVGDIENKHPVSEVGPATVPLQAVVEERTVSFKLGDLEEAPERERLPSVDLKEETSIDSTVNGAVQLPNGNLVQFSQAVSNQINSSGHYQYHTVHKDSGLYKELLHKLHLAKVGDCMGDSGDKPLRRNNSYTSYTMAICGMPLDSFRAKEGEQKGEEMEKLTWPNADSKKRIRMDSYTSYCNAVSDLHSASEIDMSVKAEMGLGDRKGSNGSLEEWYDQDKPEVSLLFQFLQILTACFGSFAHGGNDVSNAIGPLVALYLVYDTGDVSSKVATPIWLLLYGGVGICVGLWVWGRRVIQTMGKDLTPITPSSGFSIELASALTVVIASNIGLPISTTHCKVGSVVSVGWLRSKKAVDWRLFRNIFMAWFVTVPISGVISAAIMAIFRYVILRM

[3] = biological target: T1, PiT1 phosphate transporter on murine …; assay: fluorescence staining of mouse cerebellum cryosections with RBD-rFc, biotinylated anti-rabbit IgG, Streptavidin-Alexa488
[4] = biological target: T3, glucose transporter Glut1 on human cells (B cells, B-CLL cells, red blood cells, T cells) (human, UniProt P11166 1-492); assay: flow cytometry, GFP-tagged RBD on human red blood cells
T3 construct: whole, on cells; Endogenous receptor on primary human cells; the species follows from the cells; also called HTLV Env receptor
T3 sequence: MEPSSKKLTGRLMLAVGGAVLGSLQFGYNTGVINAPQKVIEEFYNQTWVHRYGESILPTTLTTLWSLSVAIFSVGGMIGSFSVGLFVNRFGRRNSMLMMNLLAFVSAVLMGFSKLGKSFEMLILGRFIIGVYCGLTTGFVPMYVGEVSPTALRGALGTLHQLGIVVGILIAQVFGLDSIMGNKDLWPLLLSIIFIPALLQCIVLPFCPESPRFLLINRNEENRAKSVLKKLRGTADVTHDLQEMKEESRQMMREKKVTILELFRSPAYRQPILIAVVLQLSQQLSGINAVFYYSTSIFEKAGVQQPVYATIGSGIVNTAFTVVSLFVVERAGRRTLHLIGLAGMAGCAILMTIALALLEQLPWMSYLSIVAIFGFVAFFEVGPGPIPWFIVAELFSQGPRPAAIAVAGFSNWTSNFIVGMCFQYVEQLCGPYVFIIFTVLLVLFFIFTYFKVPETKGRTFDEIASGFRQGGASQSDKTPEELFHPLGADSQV

B1: Gibbon Ape Leukemia virus (GALV) Env receptor binding domain, tagged soluble receptor binding ligand (ligand)
chain: TSLQNKNPHQPMTLTWQVLSQTGDVVWDTKAVQPPWTWWPTLKPDVCALAASLESWDIPGTDVSSSKRVRPPDSDYTAAYKQITWGAIGCSYPRARTRMASSTFYVCPRDGRTLSEARRCGGLESLYCKEWDCETTGTGYWLSKSSKDLITVKWDQNSEWTQKFQQCHQTGWCNPLKIDFTDKGKLSKDWITGKTWGLRFYVSGHPGVQFTIRLKITNMPAVAVGPDLVLVEQGPPRTSLALPPPLPPREAPPPSLPDSNSTALATSAQTPTVRKTIVTLNTPPPTTGDRLFDLVQGAFLTLNATNPGATESCWLC
notes: also called GaLV RBD; not shown: tag not specified
B1: binds [1]; binds [2].

B2: Gibbon ape Leukemia Virus-RBD soluble RBD-rFc fusion protein (Fc fusion)
chain: TSLQNKNPHQPMTLTWQVLSQTGDVVWDTKAVQPPWTWWPTLKPDVCALAASLESWDIPGTDVSSSKRVRPPDSDYTAAYKQITWGAIGCSYPRARTRMASSTFYVCPRDGRTLSEARRCGGLESLYCKEWDCETTGTGYWLSKSSKDLITVKWDQNSEWTQKFQQCHQTGWCNPLKIDFTDKGKLSKDWITGKTWGLRFYVSGHPGVQFTIRLKITNMPAVAVGPDLVLVEQGPPRTSLALPPPLPPREAPPPSLPDSNSTALATSAQTPTVRKTIVTLNTPPPTTGDRLFDLVQGAFLTLNATNPGATESCWLC
notes: also called GRBD; not shown: rabbit IgG Fc (rFc)
B2: binds [3].

B3: HTLV2 (SEQ ID NO: 28) tagged with a green fluorescent protein (GFP) (ligand)
chain: QQSRCTLTVGISSYHSSPCSPTQPVCTWNLDLNSLTTDQRLHPPCPNLITYSGFHKTYSLYLFPHWIKKPNRQGLGYYSPSYNDPCSLQCPYLGCQSWTCPYTGPVSSPSWKFHSDVNFTQEVSQVSLRLHFSKCGSSMTLLVDAPGYDPLWFITSEPTQPPPTSPPLVHDSDLEHVLTPSTSWTTKILKFIQLTLQSTNYSCMVC
notes: also called HRBD-EGFP; non antibody Glut1-ligand; not shown: green fluorescent protein tag (GFP / EGFP)
B3: binds [4].
